Measured values: the supplement of paper PMC10567573

B1: DVL3 (parent)
chain: SDVVDWLYHNVEGFTDRREARKYA
B2: C10orf62 (parent)
chain: TSECPSDKDKSPESHKAKNESWIK

Variants of: B1
Experiment: protein stability index of a GFP-peptide fusion (GPS, HEK-293T) (PSI 1-6); higher = more stable
Details: c terminus: a fixed tail appended
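Also: lentivirally expressed fusions sorted by FACS into six bins by GFP to DsRed ratio, PSI derived from sequencing read proportions per bin multiplied by bin number.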

With SDVVDWLYHNVEGFTDRREAHKYA [R21H] as the variant, how does the protein stability index read?
Its protein stability index is 3.02.

Which protein stability index does the source give for SDVVDWLYHNVEGFTDRREAIKYA [R21I] here?
The protein stability index was 2.33.

With SDVVDWLYHNVEGFTDRREAKKYA [R21K] as the variant, how does the protein stability index read?
The protein stability index was 3.24.

Which protein stability index does the source give for SDVVDWLYHNVEGFTDRREALKYA [R21L] here?
The protein stability index was 3.1.

For SDVVDWLYHNVEGFTDRREAMKYA [R21M], which protein stability index is on record?
The protein stability index was 2.35.

With SDVVDWLYHNVEGFTDRREANKYA [R21N] as the variant, how does the protein stability index read?
The protein stability index was 3.21.

Which protein stability index does the source give for SDVVDWLYHNVEGFTDRREAPKYA [R21P] here?
The protein stability index was 2.66.

Which protein stability index does the source give for SDVVDWLYHNVEGFTDRREAQKYA [R21Q] here?
Its protein stability index is 3.35.

With SDVVDWLYHNVEGFTDRREASKYA [R21S] as the variant, how does the protein stability index read?
Its protein stability index is 2.84.

With SDVVDWLYHNVEGFTDRREATKYA [R21T] as the variant, how does the protein stability index read?
Its protein stability index is 3.88.

With SDVVDWLYHNVEGFTDRREAVKYA [R21V] as the variant, how does the protein stability index read?
The protein stability index was 2.78.

With SDVVDWLYHNVEGFTDRREAWKYA [R21W] as the variant, how does the protein stability index read?
Its protein stability index is 1.67.

With SDVVDWLYHNVEGFTDRREAYKYA [R21Y] as the variant, how does the protein stability index read?
The protein stability index was 2.34.

For SDVVDWLYHNVEGFTDRREARAYA [K22A], which protein stability index is on record?
The protein stability index was 2.73.

For SDVVDWLYHNVEGFTDRREARCYA [K22C], which protein stability index is on record?
Its protein stability index is 2.13.

With SDVVDWLYHNVEGFTDRREARDYA [K22D] as the variant, how does the protein stability index read?
The protein stability index was 2.89.

Which protein stability index does the source give for SDVVDWLYHNVEGFTDRREAREYA [K22E] here?
The protein stability index was 3.24.

For SDVVDWLYHNVEGFTDRREARFYA [K22F], which protein stability index is on record?
The protein stability index was 1.83.

Which protein stability index does the source give for SDVVDWLYHNVEGFTDRREARGYA [K22G] here?
The protein stability index was 2.68.

Which protein stability index does the source give for SDVVDWLYHNVEGFTDRREARHYA [K22H] here?
The protein stability index was 3.

Which protein stability index does the source give for SDVVDWLYHNVEGFTDRREARIYA [K22I] here?
Its protein stability index is 2.85.

With SDVVDWLYHNVEGFTDRREARLYA [K22L] as the variant, how does the protein stability index read?
The protein stability index was 2.19.

Which protein stability index does the source give for SDVVDWLYHNVEGFTDRREARMYA [K22M] here?
Its protein stability index is 2.06.

For SDVVDWLYHNVEGFTDRREARNYA [K22N], which protein stability index is on record?
Its protein stability index is 3.45.

Which protein stability index does the source give for SDVVDWLYHNVEGFTDRREARPYA [K22P] here?
The protein stability index was 3.31.

For SDVVDWLYHNVEGFTDRREARQYA [K22Q], which protein stability index is on record?
The protein stability index was 2.81.

Which protein stability index does the source give for SDVVDWLYHNVEGFTDRREARRYA [K22R] here?
The protein stability index was 2.29.

For SDVVDWLYHNVEGFTDRREARSYA [K22S], which protein stability index is on record?
The protein stability index was 3.31.

Which protein stability index does the source give for SDVVDWLYHNVEGFTDRREARTYA [K22T] here?
The protein stability index was 2.95.

Which protein stability index does the source give for SDVVDWLYHNVEGFTDRREARVYA [K22V] here?
Its protein stability index is 2.36.

With SDVVDWLYHNVEGFTDRREARWYA [K22W] as the variant, how does the protein stability index read?
The protein stability index was 2.06.

With SDVVDWLYHNVEGFTDRREARYYA [K22Y] as the variant, how does the protein stability index read?
Its protein stability index is 1.96.

Which protein stability index does the source give for SDVVDWLYHNVEGFTDRREARKAA [Y23A] here?
The protein stability index was 4.21.

With SDVVDWLYHNVEGFTDRREARKCA [Y23C] as the variant, how does the protein stability index read?
The protein stability index was 3.69.

For SDVVDWLYHNVEGFTDRREARKDA [Y23D], which protein stability index is on record?
The protein stability index was 3.95.

With SDVVDWLYHNVEGFTDRREARKEA [Y23E] as the variant, how does the protein stability index read?
The protein stability index was 3.97.

With SDVVDWLYHNVEGFTDRREARKFA [Y23F] as the variant, how does the protein stability index read?
The protein stability index was 3.17.

With SDVVDWLYHNVEGFTDRREARKGA [Y23G] as the variant, how does the protein stability index read?
Its protein stability index is 4.05.

Which protein stability index does the source give for SDVVDWLYHNVEGFTDRREARKHA [Y23H] here?
The protein stability index was 3.73.

Which protein stability index does the source give for SDVVDWLYHNVEGFTDRREARKIA [Y23I] here?
Its protein stability index is 2.82.

Which protein stability index does the source give for SDVVDWLYHNVEGFTDRREARKKA [Y23K] here?
Its protein stability index is 3.83.

Which protein stability index does the source give for SDVVDWLYHNVEGFTDRREARKLA [Y23L] here?
Its protein stability index is 3.15.

Which protein stability index does the source give for SDVVDWLYHNVEGFTDRREARKNA [Y23N] here?
Its protein stability index is 4.05.

For SDVVDWLYHNVEGFTDRREARKPA [Y23P], which protein stability index is on record?
The protein stability index was 3.97.

For SDVVDWLYHNVEGFTDRREARKRA [Y23R], which protein stability index is on record?
The protein stability index was 4.18.

With SDVVDWLYHNVEGFTDRREARKSA [Y23S] as the variant, how does the protein stability index read?
Its protein stability index is 4.11.

For SDVVDWLYHNVEGFTDRREARKTA [Y23T], which protein stability index is on record?
The protein stability index was 3.55.

For SDVVDWLYHNVEGFTDRREARKVA [Y23V], which protein stability index is on record?
The protein stability index was 3.6.

For SDVVDWLYHNVEGFTDRREARKWA [Y23W], which protein stability index is on record?
The protein stability index was 2.75.

With SDVVDWLYHNVEGFTDRREARKYC [A24C] as the variant, how does the protein stability index read?
Its protein stability index is 3.45.

With SDVVDWLYHNVEGFTDRREARKYD [A24D] as the variant, how does the protein stability index read?
The protein stability index was 4.05.

With SDVVDWLYHNVEGFTDRREARKYE [A24E] as the variant, how does the protein stability index read?
Its protein stability index is 2.62.

For SDVVDWLYHNVEGFTDRREARKYF [A24F], which protein stability index is on record?
Its protein stability index is 2.82.

With SDVVDWLYHNVEGFTDRREARKYH [A24H] as the variant, how does the protein stability index read?
Its protein stability index is 3.34.

For SDVVDWLYHNVEGFTDRREARKYI [A24I], which protein stability index is on record?
Its protein stability index is 1.95.

For SDVVDWLYHNVEGFTDRREARKYK [A24K], which protein stability index is on record?
Its protein stability index is 3.12.

Which protein stability index does the source give for SDVVDWLYHNVEGFTDRREARKYL [A24L] here?
Its protein stability index is 2.66.

Which protein stability index does the source give for SDVVDWLYHNVEGFTDRREARKYM [A24M] here?
The protein stability index was 2.68.

Which protein stability index does the source give for SDVVDWLYHNVEGFTDRREARKYN [A24N] here?
Its protein stability index is 3.62.

For SDVVDWLYHNVEGFTDRREARKYP [A24P], which protein stability index is on record?
Its protein stability index is 3.42.

With SDVVDWLYHNVEGFTDRREARKYQ [A24Q] as the variant, how does the protein stability index read?
Its protein stability index is 3.71.

With SDVVDWLYHNVEGFTDRREARKYR [A24R] as the variant, how does the protein stability index read?
Its protein stability index is 3.11.

Which protein stability index does the source give for SDVVDWLYHNVEGFTDRREARKYT [A24T] here?
Its protein stability index is 2.79.

With SDVVDWLYHNVEGFTDRREARKYV [A24V] as the variant, how does the protein stability index read?
Its protein stability index is 2.74.

With SDVVDWLYHNVEGFTDRREARKYW [A24W] as the variant, how does the protein stability index read?
Its protein stability index is 1.09.

Which protein stability index does the source give for SDVVDWLYHNVEGFTDRREARKYY [A24Y] here?
Its protein stability index is 2.99.

Variants of: B2
Experiment: as above
Details: c terminus: a fixed tail appended

With ASECPSDKDKSPESHKAKNESWIK [T1A] as the variant, how does the protein stability index read?
The protein stability index was 2.87.

With CSECPSDKDKSPESHKAKNESWIK [T1C] as the variant, how does the protein stability index read?
Its protein stability index is 2.88.

Which protein stability index does the source give for DSECPSDKDKSPESHKAKNESWIK [T1D] here?
Its protein stability index is 3.6.

For ESECPSDKDKSPESHKAKNESWIK [T1E], which protein stability index is on record?
Its protein stability index is 3.09.

Which protein stability index does the source give for FSECPSDKDKSPESHKAKNESWIK [T1F] here?
Its protein stability index is 3.08.

With HSECPSDKDKSPESHKAKNESWIK [T1H] as the variant, how does the protein stability index read?
Its protein stability index is 3.57.

With ISECPSDKDKSPESHKAKNESWIK [T1I] as the variant, how does the protein stability index read?
Its protein stability index is 3.04.

With KSECPSDKDKSPESHKAKNESWIK [T1K] as the variant, how does the protein stability index read?
The protein stability index was 3.31.

For LSECPSDKDKSPESHKAKNESWIK [T1L], which protein stability index is on record?
The protein stability index was 4.35.

For MSECPSDKDKSPESHKAKNESWIK [T1M], which protein stability index is on record?
Its protein stability index is 3.23.

With NSECPSDKDKSPESHKAKNESWIK [T1N] as the variant, how does the protein stability index read?
Its protein stability index is 3.38.

Which protein stability index does the source give for QSECPSDKDKSPESHKAKNESWIK [T1Q] here?
The protein stability index was 3.27.

Which protein stability index does the source give for RSECPSDKDKSPESHKAKNESWIK [T1R] here?
The protein stability index was 4.3.

Which protein stability index does the source give for VSECPSDKDKSPESHKAKNESWIK [T1V] here?
Its protein stability index is 2.3.

With WSECPSDKDKSPESHKAKNESWIK [T1W] as the variant, how does the protein stability index read?
Its protein stability index is 2.28.

Which protein stability index does the source give for YSECPSDKDKSPESHKAKNESWIK [T1Y] here?
Its protein stability index is 3.14.

Which protein stability index does the source give for TAECPSDKDKSPESHKAKNESWIK [S2A] here?
The protein stability index was 2.63.

For TCECPSDKDKSPESHKAKNESWIK [S2C], which protein stability index is on record?
Its protein stability index is 3.96.

For TDECPSDKDKSPESHKAKNESWIK [S2D], which protein stability index is on record?
Its protein stability index is 3.7.

For TEECPSDKDKSPESHKAKNESWIK [S2E], which protein stability index is on record?
The protein stability index was 3.98.

With TFECPSDKDKSPESHKAKNESWIK [S2F] as the variant, how does the protein stability index read?
Its protein stability index is 3.12.

With TGECPSDKDKSPESHKAKNESWIK [S2G] as the variant, how does the protein stability index read?
The protein stability index was 3.26.

For THECPSDKDKSPESHKAKNESWIK [S2H], which protein stability index is on record?
The protein stability index was 3.47.

For TIECPSDKDKSPESHKAKNESWIK [S2I], which protein stability index is on record?
Its protein stability index is 3.25.

With TKECPSDKDKSPESHKAKNESWIK [S2K] as the variant, how does the protein stability index read?
Its protein stability index is 3.13.

For TLECPSDKDKSPESHKAKNESWIK [S2L], which protein stability index is on record?
Its protein stability index is 3.24.

With TMECPSDKDKSPESHKAKNESWIK [S2M] as the variant, how does the protein stability index read?
Its protein stability index is 3.17.

Which protein stability index does the source give for TNECPSDKDKSPESHKAKNESWIK [S2N] here?
Its protein stability index is 3.74.
